Measured values reported in the nanobody polyreactivity screen of Harvey et al. (2022).

Test: yeast display, Sf9 membrane polyspecificity reagent, FACS + sequencing; frameworks hold sequencing errors
Outline: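 Synthetic nanobody libraries on Saccharomyces cerevisiae BJ5465 were galactose-induced for 36–48 hours, stained 1 hour at 4 °C with 10% biotinylated, detergent-solubilized Sf9 membrane reagent and enriched on streptavidin microbeads. FACS then separated cells into low and high (top ~1%) gates by anti-HA (expression) and streptavidin (reagent binding) fluorescence. Genes were colony-PCR amplified, MiSeq 2 × 250 sequenced and CDR-length filtered. A clone's polyreactivity label is that of its gate of origin.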

| Sequence | polyreactivity (PSR sort gate) |
| --- | --- |
| QVQLVESGGGLVQAAGSLRISCAASGLIFNYYAMGWYRQAPGKERELVAAISKDGGSTYYADSVKGRFTISRDNAKNTVYLQMNSLKPEDTADFYCAARTFRISRMDYRGQGTQVTVSS | high polyreactivity |
| QVQLVESGGGLVQAAGSLRLICAASGSTFEGNVMGWYRPAPGKERELVAAMSVRGGSTYYADSVKGRFTISRDNAKNTVYLQMNSLKQEDTEDYYCAKKYYRPFWEGDYWGQGTQVTVSS | low polyreactivity |
| QVQLVESGGGLVQAAGSLRLSCAASGFIFIYNAMGWYRQAPGKERELVAAITGSDGGTFYADSVKGRFTFSRDYAKNTVYLQINSLKPEDTAVYYCHADNGSRQSRDGYESWGQGTQVTVSS | low polyreactivity |
| QVQLVESGGGLVQAAGSLRLSCAASGFIFLVYSMGWSRQAPGKARELVAAISASGGRTYYADSVKGRFTISRDNAKNTVYLQMNSLKPEDTAVYYCARLLPTPGKPILDYWGQGTQVTVSS | low polyreactivity |
| QVQLVESGGGLVQAAGSLRLSCAASGFTFEKYVMGRYRQAPGKEREFVAAITRSGGRTYYADSVKGRFTISRDNAKNTVYLQMNSLKPEYTAVYYCAAAFSRSDTGGGSWGQGTQVTVSS | high polyreactivity |
| QVQLVESGGGLVQAAGSLRLSCAASGFTFWLYAMGWYRQAPGSEREMVAAIRRGGGTNYADSVKGRFTISRDNAKNTVYLQMNSLKPEDTAVYYCAAAVLSYRHAHAGYYYAKGDYWGQGTQVTVSS | high polyreactivity |
| QVQLVESGGGLVQAAGSLRLSCAASGITLYWYAMGWSRQAPGKERELVATISRRGGTTYYADSVKGRFTISRDNAKNTVYLQMNSLKPEDTAVYYCAKAPDTQTSWSRQEGNYWGQGTQVTVSS | low polyreactivity |
| QVQLVESGGGLVQAAGSLRLSCAASGLTFWKYTMGWNRQAPGKEWELVAAISISGTNTYYADSVKGRFTISRDNAKNTVYLQLNSLKPEDTAVYYCAAVRGYPPTNYYYWGPGTQVTVSS | high polyreactivity |
| QVQLVESGGGLVQAAGSLRLSCAASGRIFTPYAMGWYRQAPGKERELVAVIRDGSTYYADSVKGRFTISRDNAKNTVYLQMNSLKPEDTAVYYCRYDIWVWWSGAYDYWGLGTQVTVSS | low polyreactivity |
| QVQLVESGGGLVQAAGSLRLSCAASGRTFHWYVMGWYRQAPGKESELDAAITRRGGSTYYADSVKGRFTISRDNAKNTVYLQLNSLKPEDTAVYYCAAVGNRRYYFGYDYWGQGTQVTVSS | high polyreactivity |
| QVQLVESGGGLVQAAGSLRLSCAASGRTSVRYAMGWNRQAHGKERELVAAISWSGGSTYYADSVKGRFTISRDNAKNTVYLQMNSLKPEDTAVYYCNAQHALGYYYWGQGTQVTVSS | low polyreactivity |
| QVQLVESGGGLVQAAGSLRLSCAASGTTFNRFFMGWYREAPGTERELVAANGGRTYYADSVKGRFTISRDNAKKSVYFQRNSLKPEDTAVYYCNARSYKHPYYRFDYWGQGTEVTVSS | high polyreactivity |
| QVQLVESGGGLVQAAGSLRVSCAASGSIFYGYAMGGYRKAPGKERELVAAITTVGSTYADSVKGRFTISRDNAKNTVYLQMNSLKPEDTAVYYCNARDYERTRRYLIVYSRYGYWGHGTQVTVSS | low polyreactivity |
| QVQLVESGGGLVQAGASLRLSCAASGFTFGINAMGWYRQAPGKERELVATISTRGGTTHYADSVKGRFTISRDNAKNTVYLQMNRLKPEDTAVYYCAVERGTFRSGFAYEYYYWGQGTQVTVSS | low polyreactivity |
| QVQLVESGGGLVQAGASLRLSCAASGRIFARYAMGWYRQAPGKERELVASITRSGGSTYYADSVKGRYTISRDNAKNTVYLQMNSLKPEDTAVYYCAARYGRVRDVIPYDYWGQGTQVTVSS | high polyreactivity |
| QVQLVESGGGLVQAGASLRLSCAASGRIFPTYAMGWYRQAPGKEMEFVAAISRSGGRTYYADSVKGRFTISRDHAKNTVYLQMNSLKPEDTAVYYCNAEGDPYVDFPSRSTGYDYWGQGTQVTVSS | high polyreactivity |

| Sequence | polyreactivity (PSR sort gate) |
| --- | --- |
| QVQLVESGGGLVQAGASLRLSCAASGRTFETNAMGWYSQAPGKEREFVASINWSGGSTYYSDSVKGRFTISRDNAKNTVYLQMNSLKPEDTAVYYCAADHSYWDWWSYYYWGQGTQVTVSS | low polyreactivity |
| QVQLVESGGGLVQAGASLRLSCAASGRTFGGYAMGWYRQAAGKERELVAAISYSGGSTYYADSVKGRFTISRDYAKNTVYLQMNSLKPEDTAVYYCAADGFDAYYWGQGTQVTVSS | low polyreactivity |
| QVQLVESGGGLVQAGASLRLSCAASGRTYRWYTMGWYRPAPGKERELVAAITSRGGSTYADSVKGRFTISRDNAKNTVYLQMNSLKPEDTAVYYCNAARTYQYDYWGQGTQVTVSS | high polyreactivity |
| QVQLVESGGGLVQAGASLRLSCAASGSIFSGYTMGWYRQAPGKERELVAGISYRGGSTYYADSVKGRFTISRDNAKNTVYLQMNSLKPEDTAVYYCAALYYRRGSLNYEYWGQGTQVTVSS | high polyreactivity |
| QVQLVESGGGLVQAGASLRLSCAASGSIFSSYARGWYRPAPGKERELVAVITNGGSTYYADSVKGRFTISRDYAKNTVYLQMNSLKPEDTAVYYCNARWTKGRKYGYWGQGTQVTVSS | low polyreactivity |
| QVQLVESGGGLVQAGASLRLSCAASGSIFTRNTMGWYRQAPGKERELVARISGGRTNYADSVKGRFTISRDNAKNTVYLQMYSLKPVDTAVYYCAARGLYTPTKRSGDPYYYWGQGSQVTVSS | high polyreactivity |
| QVQLVESGGGLVQAGASLRLSCAASGSIFYYDMGWDRQAPGKERELVAAITWSGGSTYYADSVKGRFTISRDNAKNTVYLQMNSLKPEDTAVYYCAAIFGYGSTWWRWGKDDYWGQGTQVTVSS | high polyreactivity |
| QVQLVESGGGLVQAGASLRLSCAASGSTFYYYAMGWYRQAPGKERELVAAITYRGGSTYYADSVKGRFTISRDNAKNTDFLQMNSLKPEDPAVYYCAADIVTGFISGPGYVYWGQGTQVTVSS | high polyreactivity |
| QVQLVESGGGLVQAGASLRLSCDASGLTFGYYAMGWYRQAPGKERELVAAINRSGNTNYADSVKGRFTISRDNAKNTVYLQMNSLKPEDTAVYYCAKRIWSILSPYKSSYGYDYWGQGTQVTVSS | low polyreactivity |
| QVQLVESGGGLVQAGCRLRLSCAASGLIFGYYHMGWYRQAPGKERELVAAITTGDSTYYADSVKGRFTISRDNAKNTVYLQMNSLKPEDTAVYYCAAYPVWYYEYDYWGQGTQVTVSS | low polyreactivity |
| QVQLVESGGGLVQAGCSLLLSCDATGNIFRYYFMGWYRQAPGKEREFVAAITTSCGSTYYADSVKGRFTISRDNAKNTVYLQMNSLKQEDTAVYYCAKDYWVPGWAEYDYWGQGTQVTVSS | low polyreactivity |
| QVQLVESGGGLVQAGCSLRISCAASGLIFQYYAMGWYRQAPGKERELVAAISGFGVRTYYADSVKGRFTISRDNAKNTVYLQMNSLKPEDTAVYYCNTLRQDIIRGDYWGQGTQVTVSS | high polyreactivity |
| QVQLVESGGGLVQAGCSLRISSAASGRIFAVKAMGWYRQAPGKDRELVAAITNVGSTNYADSVKGRFTISRDNAKNTVYLQMNSLKPEDTAVYYCNADLAQEDWKMDYWGQGTQVTVSS | low polyreactivity |
| QVQLVESGGGLVQAGCSLRLICAASALTFYHKAMGWYRPAPVKERELVAPISSSGDSTYSADSVKGRFTISHDNGKNTVYLQMNSLKPEYTAVYYCAADLGYYNARWYEYWGQGTQVTVSS | high polyreactivity |
| QVQLVESGGGLVQAGCSLRLRCAASGYTFYDYAMGWYRPAPGKERELVAASSSSGGSTYYADSVKGRFTISRDNAKNTGYLQMNSVKPEDTALYYCAVRARRWRYNYWGQGTQVTVSS | high polyreactivity |
